Source: patent US20240261333A1, “NOVEL TARGETS FOR ENHANCING ANTI-TUMOR IMMUNITY” (THE BROAD INSTITUTE, INC., priority 2021, published 2024)

B1: STAU1 (protein)
chain: MKLGKKPMYKPVDPYSRMQSTYNYNMRGGAYPPRYFYPFPVPPLLYQVELSVGGQQFNGKGKTRQAAKHDAAAKALRILQNEPLPERLEVNGRESEEENLNKSEISQVFEIALKRNLPVNFESFPLKQVARESGPPHMKNFVTKVSVGEFVGEGEGKSKKISKKNAAIAVLEELKKLPPLPAVERVKPRIKKKTKPIVKPQTSPEYGQGINPISRLAQIQQAKKEKEPEYTLLTERGLPRRREFVMQVKVGNHTAEGTGTNKKVAKRNAAENMLEILGFKVPQAQPTKPALKSEEKTPIKKPGDGRKVTFFEPGSGDENGTSNKEDEFRMPYLSHQQLPAGILPMVPEVAQAVGVSQGHHTKDFTRAAPNPAKATVTAMIARELLYGGTSPTAETILKNNISSGHVPHGPLTRPSEQLDYLSRVQGFQVEYKDFPKNNKNEFVSLINCSSQPPLISHGIGKDVESCHDMAALNILKLLSELDQQSTEMPRTGNGPMSVCGRC
B2: ERP44 (protein)
chain: EITSLDTENIDEILNNADVALVNFYADWCRFSQMLHPIFEEASDVIKEEFPNENQVVFARVDCDQHSDIAQRYRISKYPTLKLFRNGMMMKREYRGQRSVKALADYIRQQKSDPIQEIRDLAEITTLDRSKRNIIGYFEQKDSDNYRVFERVANILHDDCAFLSAFGDVSKPERYSGDNIIYKPPGHSAPDMVYLGAMTNFDVTYNWIQDKCVPLVREITFENGEELTEEGLPFLILFHMKEDTESLEIFQNEVARQLISEKGTINFLHADCDKFRHPLLHIQKTPADCPVIAIDSFRHMYVFGDFKDVLIPGKLKQFVFDLHSGKLHREFHHGPDPTDTAPGEQAQDVASSPPESSFQKLAPSEYRYTLLRDRDEL
B3: TRAFD1 (protein)
chain: AEFLDDQETRLCDNCKKEIPVFNFTIHEIHCQRNIGMCPTCKEPFPKSDMETHMAAEHCQVTCKCNKKLEKRLLKKHEETECPLRLAVCQHCDLELSILKLKEHEDYCGARTELCGNCGRNVLVKDLKTHPEVCGREGEEKRNEVAIPPNAYDESWGQDGIWIASQLLRQIEALDPPMRLPRRPLRAFESDVFHNRTTNQRNITAQVSIQNNLFEEQERQERNRGQQPPKEGGEESANLDFMLALSLQNEGQASSVAEQDFWRAVCEADQSHGGPRSLSDIKGAADEIMLPCEFCEELYPEELLIDHQTSCNPSRALPSLNTGSSSPRGVEEPDVIFQNFLQQAASNQLDSLMGLSNSHPVEESIIIPCEFCGVQLEEEVLFHHQDQCDQRPATATNHVTEGIPRLDSQPQETSPELPRRRVRHQGDLSSGYLDDTKQETANGPTSCLPPSRPINNMTATYNQLSRSTSGPRPGCQPSSPCVPKLSNSDSQDIQGRNRDSQNGAIAPGHVSVIRPPQNLYPENIVPSFSPGPSGRYGASGRSEGGRNSRVTPAAANYRSRTAKAKPSKQQGAGDAEEEEEE
B4: PSMB6 (protein)
chain: TTIMAVQFDGGVVLGADSRTTTGSYIANRVTDKLTPIHDRIFCCRSGSAADTQAVADAVTYQLGFHSIELNEPPLVHTAASLFKEMCYRYREDLMAGIIIAGWDPQEGGQVYSVPMGGMMVRQSFAIGGSGSSYIYGYVDATYREGMTKEECLQFTANALALAMERDGSSGGVIRLAAIAESGVERQVLLGDQIPKFAVATLPPA
B5: KTN1 (protein)
chain: MEFYESAYFIVLIPSIVITVIFLFFWLFMKETLYDEVLAKQKREQKLIPTKTDKKKAEKKKNKKKEIQNGNLHESDSESVPRDFKLSDALAVEDDQVAPVPLNVVETSSSVRERKKKEKKQKPVLEEQVIKESDASKIPGKKVEPVPVTKQPTPPSEAAASKKKPGQKKSKNGSDDQDKKVETLMVPSKRQEALPLHQETKQESGSGKKKASSKKQKTENVFVDEPLIHATTYIPLMDNADSSPVVDKREVIDLLKPDQVEGIQKSGTKKLKTETDKENAEVKFKDFLLSLKTMMFSEDEALCVVDLLKEKSGVIQDALKKSSKGELTTLIHQLQEKDKLLAAVKEDAAATKDRCKQLTQEMMTEKERSNVVITRMKDRIGTLEKEHNVFQNKIHVSYQETQQMQMKFQQVREQMEAEIAHLKQENGILRDAVSNTTNQLESKQSAELNKLRQDYARLVNELTEKTGKLQQEEVQKKNAEQAATQLKVQLQEAERRWEEVQSYIRKRTAEHEAAQQDLQSKFVAKENEVQSLHSKLTDTLVSKQQLEQRLMQLMESEQKRVNKEESLQMQVQDILEQNEALKAQIQQFHSQIAAQTSASVLAEELHKVIAEKDKQIKQTEDSLASERDRLTSKEEELKDIQNMNFLLKAEVQKLQALANEQAAAAHELEKMQQSVYVKDDKIRLLEEQLQHEISNKMEEFKILNDQNKALKSEVQKLQTLVSEQPNKDVVEQMEKCIQEKDEKLKTVEELLETGLIQVATKEEELNAIRTENSSLTKEVQDLKAKQNDQVSFASLVEELKKVIHEKDGKIKSVEELLEAELLKVANKEKTVQDLKQEIKALKEEIGNVQLEKAQQLSITSKVQELQNLLKGKEEQMNTMKAVLEEKEKDLANTGKWLQDLQEENESLKAHVQEVAQHNLKEASSASQFEELEIVLKEKENELKRLEAMLKERESDLSSKTQLLQDVQDENKLFKSQIEQLKQQNYQQASSFPPHEELLKVISEREKEISGLWNELDSLKDAVEHQRKKNNDLREKNWEAMEALASTEKMLQDKVNKTSKERQQQVEAVELEAKEVLKKLFPKVSVPSNLSYGEWLHGFEKKAKECMAGTSGSEEVKVLEHKLKEADEMHTLLQLECEKYKSVLAETEGILQKLQRSVEQEENKWKVKVDESHKTIKQMQSSFTSSEQELERLRSENKDIENLRREREHLEMELEKAEMERSTYVTEVRELKDLLTELQKKLDDSYSEAVRQNEELNLLKAQLNETLTKLRTEQNERQKVAGDLHKAQQSLELIQSKIVKAAGDTTVIENSDVSPETESSEKETMSVSLNQTVTQLQQLLQAVNQQLTKEKEHYQVLE
B6: STAU2 (protein)
chain: MANPKEKTAMCLVNELARFNRVQPQYKLLNERGPAHSKMFSVQLSLGEQTWESEGSSIKKAQQAVANKALTESTLPKPVQKPPKSNVNNNPGSITPTVELNGLAMKRGEPAIYRPLDPKPFPNYRANYNFRGMYNQRYHCPVPKIFYVQLTVGNNEFFGEGKTRQAARHNAAMKALQALQNEPIPERSPQNGESGKDVDDDKDANKSEISLVFEIALKRNMPVSFEVIKESGPPHMKSFVTRVSVGEFSAEGEGNSKKLSKKRAATTVLQELKKLPPLPVVEKPKLFFKKRPKTIVKAGPEYGQGMNPISRLAQIQQAKKEKEPDYVLLSERGMPRRREFVMQVKVGNEVATGTGPNKKIAKKNAAEAMLLQLGYKASTNLQDQLEKTGENKGWSGPKPGFPEPTNNTPKGILHLSPDVYQEMEASRHKVISGTTLGYLSPKDMNQPSSSFFSISPTSNSSATIARELLMNGTSSTAEAIGLKGSSPTPPCSPVQPSKQLEYLARIQGFQAALSALKQFSEQGLDPIDGAMNIEKGSLEKQAKHLREKADNNQAPPGSIAQDCKKSNSAV

target: T1, B3GNT2 (Homo sapiens, UniProt Q9NY97); assay: Co-IP of FLAG-tagged B3GNT2 followed by mass spectrometry; format: cell-based; parameters: C-term IgG / C-term flag: unit not given here; conditions: Co-IP with FLAG antibody, C-terminally FLAG-tagged B3GNT2; mass spectrometry count, unit not given
T1 construct: The respective ORFs of candidate genes [CD274 (NM_014143), MCL1 (NM_021960), JUNB (NM_002229), and B3GNT2 (NM_006577)] were synthesized; expressed in transfected cells; host or cells: A375 melanoma cells (lentiviral ORF overexpression)
T1 sequence (Q9NY97 1-397): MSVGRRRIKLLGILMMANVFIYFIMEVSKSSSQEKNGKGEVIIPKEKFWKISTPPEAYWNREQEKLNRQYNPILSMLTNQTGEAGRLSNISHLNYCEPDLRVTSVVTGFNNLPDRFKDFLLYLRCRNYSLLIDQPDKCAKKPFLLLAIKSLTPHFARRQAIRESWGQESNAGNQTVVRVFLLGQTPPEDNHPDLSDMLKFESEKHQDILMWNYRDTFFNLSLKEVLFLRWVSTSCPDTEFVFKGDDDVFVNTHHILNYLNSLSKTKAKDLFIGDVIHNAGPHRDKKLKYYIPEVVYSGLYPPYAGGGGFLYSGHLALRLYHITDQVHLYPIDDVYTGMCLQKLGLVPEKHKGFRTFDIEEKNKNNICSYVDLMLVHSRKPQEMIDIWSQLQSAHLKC
Method in brief: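 Co-purifying proteins were identified by fractionated nano-LC–MS/MS on an Orbitrap Elite, run data-dependent. Beforehand, lysates in 1% Triton X-100/HEPES buffer were incubated overnight at 4° C with anti-FLAG or […] and pulled down on Protein A/G magnetic beads for 4 h. Duplicate biological replicates.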

Row | Molecule | C-term flag
1 | B1 | 6
2 | B2 | 2
3 | B3 | 2
4 | B4 | 3
5 | B5 | 2
6 | B6 | 2

same assay, conditions: Co-IP with FLAG antibody, N-terminally FLAG-tagged B3GNT2; mass spectrometry count, unit not given

Row | Molecule | N-term FLAG
7 | B1 | 2
8 | B2 | 0
9 | B3 | 0
10 | B4 | 5
11 | B5 | 0
12 | B6 | 0

same assay, conditions: Co-IP with IgG control antibody, C-terminally FLAG-tagged B3GNT2; mass spectrometry count, unit not given

Row | Molecule | C-term IgG
13 | B1 | 0
14 | B2 | 0
15 | B3 | 0
16 | B4 | 0
17 | B5 | 0
18 | B6 | 0

same assay, conditions: Co-IP with IgG control antibody, N-terminally FLAG-tagged B3GNT2; mass spectrometry count, unit not given

Row | Molecule | N-term IgG
19 | B1 | 0
20 | B2 | 0
21 | B3 | 0
22 | B4 | 0
23 | B5 | 0
24 | B6 | 0
